Assay results published in article PMC3877283, “Development of Novel Radiogallium-Labeled Bone Imaging Agents Using Oligo-Aspartic Acid Peptides as Carriers” (PLoS ONE, 2013).
Peptide text beside a SMILES is read from it. * marks the point of attachment. DOTA = O=C(O)CN1CCN(CC(=O)O)CCN(CC(=O)*)CCN(CC(=O)O)CC1

test: Biodistribution experiments in normal mice; format: in vivo, ddY mice; settings: mouse, in vivo, iv
Protocol: Experiments with animals were conducted in strict accordance with the Guidelines for the Care and Use of Laboratory Animals of Kanazawa University. The animal experimental protocols used were approved by the Committee on Animal Experimentation of Kanazawa University (Permit Number: AP-132633). Biodistribution experiments were performed after an intravenous administration of each diluted tracer solution (37 kBq/100 µL) to 6-week-old male ddY mice (27–32 g, Japan SLC, Inc., Hamamatsu, Japan). To investigate the effect of an excess amount of bisphosphonate on biodistribution, alendronate (20 mg/kg) was intravenously administered to mice 1 minute before the intravenous injection of ^67Ga-DOTA-(Asp)14 or ^67Ga-DOTA-Bn-SCN-HBP. Four to six mice each were sacrificed by decapitation at 10, 60, and 180 minutes post-injection. Tissues of interest were removed and weighed. Complete left femurs were isolated as representative bone samples, radioactivity was determined using an auto well gamma counter, and counts were corrected for background radiation and physical decay during counting.

| Structure (SMILES) | accumulation of radioactivity in the femur (in words) |
| --- | --- |
| O=C(O)C[C@H](NC(=O)[C@H](CC(=O)O)NC(=O)CN1CCN(CC(=O)O)CCN(CC(=O)O)CCN(CC(=O)O)CC1)C(=O)O [67Ga-DOTA-(Asp)2, metal not drawn] ({DOTA}-Asp-Asp-OH) | hardly accumulated in the femur |
| O=C(O)C[C@H](NC(=O)[C@H](CC(=O)O)NC(=O)[C@H](CC(=O)O)NC(=O)[C@H](CC(=O)O)NC(=O)[C@H](CC(=O)O)NC(=O)CN1CCN(CC(=O)O)CCN(CC(=O)O)CCN(CC(=O)O)CC1)C(=O)O [67Ga-DOTA-(Asp)5, metal not drawn] ({DOTA}-DDDDD-OH) | moderate accumulation |
| O=C(O)C[C@H](NC(=O)[C@H](CC(=O)O)NC(=O)[C@H](CC(=O)O)NC(=O)[C@H](CC(=O)O)NC(=O)[C@H](CC(=O)O)NC(=O)[C@H](CC(=O)O)NC(=O)[C@H](CC(=O)O)NC(=O)[C@H](CC(=O)O)NC(=O)CN1CCN(CC(=O)O)CCN(CC(=O)O)CCN(CC(=O)O)CC1)C(=O)O [67Ga-DOTA-(Asp)8, metal not drawn] ({DOTA}-DDDDDDDD-OH) | higher accumulation |
